In PMC9482650, “Quantitative fragmentomics allow affinity mapping of interactomes” (Nature Communications, 2022):

What was measured:
Assay in all cases: holdup assay
Design in all cases: key: below the threshold = too weak to quantify, mostly under pKd 3.1 to 4
[1] = molecular target: GRIP2_6, Q9C0E4
[2] = molecular target: T1, GRIP1_4, Q9Y3R0
T1 sequence (Q9Y3R0 467-571, limits assumed, looked up): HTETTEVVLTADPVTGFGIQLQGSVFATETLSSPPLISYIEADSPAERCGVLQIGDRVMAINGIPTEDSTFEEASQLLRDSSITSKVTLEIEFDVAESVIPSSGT

[3] = molecular target: GRIP2_4, Q9C0E4
Sequence of GRIP2_4, Q9C0E4 (Q9C0E4 446-548): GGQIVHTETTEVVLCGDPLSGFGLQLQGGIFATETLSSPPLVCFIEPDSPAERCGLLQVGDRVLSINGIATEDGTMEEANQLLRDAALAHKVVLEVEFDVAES

[4] = molecular target: PICK1, Q9NRD5
Sequence of PICK1, Q9NRD5 (Q9NRD5 17-115): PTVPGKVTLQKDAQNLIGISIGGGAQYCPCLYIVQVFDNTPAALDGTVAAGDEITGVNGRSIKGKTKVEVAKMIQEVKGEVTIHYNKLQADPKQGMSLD

[5] = molecular target: T2, TIAM2, Q8IVF5
T2 sequence (Q8IVF5 885-986, limits assumed, looked up): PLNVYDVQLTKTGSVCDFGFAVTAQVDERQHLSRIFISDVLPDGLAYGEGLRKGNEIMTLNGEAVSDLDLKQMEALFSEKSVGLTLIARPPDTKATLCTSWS

[6] = molecular target: GRASP, Q7Z6J2
Sequence of GRASP, Q7Z6J2 (Q7Z6J2 96-193): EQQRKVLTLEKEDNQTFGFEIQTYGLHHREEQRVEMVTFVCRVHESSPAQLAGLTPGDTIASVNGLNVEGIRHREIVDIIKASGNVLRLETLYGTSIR

[7] = molecular target: IL16_3, Q14005
Sequence of IL16_3, Q14005 (Q14005 1107-1207): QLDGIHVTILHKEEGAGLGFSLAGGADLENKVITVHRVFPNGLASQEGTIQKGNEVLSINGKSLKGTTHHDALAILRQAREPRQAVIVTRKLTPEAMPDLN

[8] = molecular target: T3, APBA3_1, O96018
T3 sequence (O96018 389-490, limits assumed, looked up): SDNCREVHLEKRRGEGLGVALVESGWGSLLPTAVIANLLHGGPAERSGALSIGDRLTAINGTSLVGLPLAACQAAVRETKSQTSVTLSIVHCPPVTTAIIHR

[9] = molecular target: T4, DFNB31_3, Q9P202
T4 sequence (Q9P202 811-907, limits assumed, looked up): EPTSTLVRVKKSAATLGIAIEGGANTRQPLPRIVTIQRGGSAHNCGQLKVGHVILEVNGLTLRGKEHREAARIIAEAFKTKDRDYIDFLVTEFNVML

[10] = molecular target: T5, PDZRN3_1, Q9UPQ7
T5 sequence (Q9UPQ7 244-349, limits assumed, looked up): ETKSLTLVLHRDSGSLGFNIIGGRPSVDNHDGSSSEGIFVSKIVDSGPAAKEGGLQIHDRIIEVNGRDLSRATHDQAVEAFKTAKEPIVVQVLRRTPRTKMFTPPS

[11] = molecular target: T6, MPP2, Q14168
T6 sequence (Q14168 180-250, limits assumed, looked up): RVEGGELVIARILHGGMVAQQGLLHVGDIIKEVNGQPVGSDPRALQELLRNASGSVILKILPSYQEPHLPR

[12] = molecular target: T7, MPDZ_12, O75970
T7 sequence (O75970 1857-1958, limits assumed, looked up): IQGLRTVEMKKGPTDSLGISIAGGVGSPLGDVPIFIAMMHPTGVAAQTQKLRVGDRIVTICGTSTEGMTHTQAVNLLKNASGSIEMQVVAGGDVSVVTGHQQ

[13] = molecular target: T8, HTRA3, P83110
T8 sequence (P83110 354-453, limits assumed, looked up): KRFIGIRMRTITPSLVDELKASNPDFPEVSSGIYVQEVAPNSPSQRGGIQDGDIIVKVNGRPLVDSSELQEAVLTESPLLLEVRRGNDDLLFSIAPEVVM

[14] = molecular target: TJP1_3, Q07157
Sequence of TJP1_3, Q07157 (Q07157 416-512): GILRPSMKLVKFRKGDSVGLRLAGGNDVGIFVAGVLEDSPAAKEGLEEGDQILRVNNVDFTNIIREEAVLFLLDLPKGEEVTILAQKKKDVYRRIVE

[15] = molecular target: FRMPD3, Q5JV73
Sequence of FRMPD3, Q5JV73 (Q5JV73 12-100): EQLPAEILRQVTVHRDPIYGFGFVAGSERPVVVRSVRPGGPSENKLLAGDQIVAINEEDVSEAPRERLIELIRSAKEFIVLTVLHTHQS

[16] = molecular target: T9, RADIL, Q96JH8
T9 sequence (Q96JH8 971-1071, limits assumed, looked up): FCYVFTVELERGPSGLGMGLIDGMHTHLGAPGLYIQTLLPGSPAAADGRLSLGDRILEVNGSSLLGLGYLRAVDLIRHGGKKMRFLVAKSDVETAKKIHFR

[17] = molecular target: Inadl_9, Q8NI35
Sequence of Inadl_9, Q8NI35 (Q8NI35 1530-1615): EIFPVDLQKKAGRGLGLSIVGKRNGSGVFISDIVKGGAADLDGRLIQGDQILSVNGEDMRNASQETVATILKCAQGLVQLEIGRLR

[18] = molecular target: DLG5_1, Q8TDM6
Sequence of DLG5_1, Q8TDM6 (Q8TDM6 617-713): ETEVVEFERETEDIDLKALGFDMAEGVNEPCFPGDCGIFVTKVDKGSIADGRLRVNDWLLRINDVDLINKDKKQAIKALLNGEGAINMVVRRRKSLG

[19] = molecular target: NOS1, P29475
Sequence of NOS1, P29475 (P29475 9-101): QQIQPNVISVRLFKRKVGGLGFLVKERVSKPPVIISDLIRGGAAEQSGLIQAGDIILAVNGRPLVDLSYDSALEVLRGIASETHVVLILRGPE

[20] = molecular target: GORASP2, Q9H8Y8
[21] = molecular target: T10, DLG3_2, Q92796
T10 sequence (Q92796 221-321, limits assumed, looked up): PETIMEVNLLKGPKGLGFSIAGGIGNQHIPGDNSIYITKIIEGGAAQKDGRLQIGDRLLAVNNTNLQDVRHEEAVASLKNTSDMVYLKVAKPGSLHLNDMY

[22] = molecular target: LNX1_2, Q8TBB1
Sequence of LNX1_2, Q8TBB1 (Q8TBB1 371-470): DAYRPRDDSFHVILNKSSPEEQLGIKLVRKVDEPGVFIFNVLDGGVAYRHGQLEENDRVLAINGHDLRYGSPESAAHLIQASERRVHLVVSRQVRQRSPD

[23] = molecular target: MAGI2_2, Q86UL8
Sequence of MAGI2_2, Q86UL8 (Q86UL8 410-522): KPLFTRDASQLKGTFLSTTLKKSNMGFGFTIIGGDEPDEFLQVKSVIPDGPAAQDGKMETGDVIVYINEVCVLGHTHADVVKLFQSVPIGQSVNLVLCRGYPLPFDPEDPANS

[24] = molecular target: GRID2IP_2, A4D2P6
Sequence of GRID2IP_2, A4D2P6 (A4D2P6 272-370): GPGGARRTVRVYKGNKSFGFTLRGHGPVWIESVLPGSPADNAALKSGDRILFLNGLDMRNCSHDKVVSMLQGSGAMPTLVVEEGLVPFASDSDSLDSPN

[25] = molecular target: IL16_4, Q14005
Sequence of IL16_4, Q14005 (Q14005 1229-1329): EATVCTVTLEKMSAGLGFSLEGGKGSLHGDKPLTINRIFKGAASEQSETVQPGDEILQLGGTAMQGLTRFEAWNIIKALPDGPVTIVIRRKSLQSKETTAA

[26] = molecular target: T11, DFNB31_1, Q9P202
T11 sequence (Q9P202 135-233, limits assumed, looked up): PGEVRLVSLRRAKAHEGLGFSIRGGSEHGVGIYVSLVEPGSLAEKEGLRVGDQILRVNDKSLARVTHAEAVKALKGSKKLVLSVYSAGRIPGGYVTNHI

[27] = plain residues with an end cap or a label only (N-terminal biotin on a linker: ahx)
[28] = plain residues with an end cap or a label only (N-terminal biotin on a linker: ttds)

Sequence of GRIP2_6, Q9C0E4 (Q9C0E4 648-740): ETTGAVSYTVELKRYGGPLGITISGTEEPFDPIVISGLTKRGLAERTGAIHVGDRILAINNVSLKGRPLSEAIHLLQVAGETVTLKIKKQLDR

B1: GRIN2B, Q13224 (peptide)
chain: EKLSSIESDV
- pKd [1, 27]: below the threshold
- pKd [2, 27]: below the threshold
- pKd [3, 27]: below the threshold
- pKd [4, 27]: below the threshold
- pKd [5, 27]: 3.71
- pKd [6, 27]: below the threshold
- pKd [7, 27]: 3.57
- pKd [8, 27]: below the threshold
- pKd [9, 27]: below the threshold
- pKd [10, 27]: 3.7
- pKd [11, 27]: below the threshold
- pKd [12, 27]: below the threshold
- pKd [13, 27]: below the threshold
- pKd [14, 27]: below the threshold
- pKd [15, 27]: below the threshold
- pKd [16, 27]: below the threshold
- pKd [17, 27]: below the threshold
- pKd [18, 27]: below the threshold
- pKd [19, 27]: below the threshold
- pKd [20, 27]: below the threshold
- pKd [21, 27]: 4.96
- pKd [22, 27]: below the threshold
- pKd [23, 27]: below the threshold
- pKd [24, 27]: below the threshold
- pKd [25, 27]: below the threshold
- pKd [26, 27]: below the threshold

B2: PBK, Q96KB5 (peptide)
chain: HIVEALETDV
- pKd [1, 28]: below the threshold
- pKd [2, 28]: below the threshold
- pKd [3, 28]: below the threshold
- pKd [4, 28]: below the threshold
- pKd [5, 28]: below the threshold
- pKd [6, 28]: below the threshold
- pKd [7, 28]: below the threshold
- pKd [8, 28]: below the threshold
- pKd [9, 28]: below the threshold
- pKd [10, 28]: below the threshold
- pKd [11, 28]: below the threshold
- pKd [12, 28]: below the threshold
- pKd [13, 28]: below the threshold
- pKd [14, 28]: below the threshold
- pKd [15, 28]: below the threshold
- pKd [16, 28]: below the threshold
- pKd [17, 28]: below the threshold
- pKd [18, 28]: below the threshold
- pKd [19, 28]: below the threshold
- pKd [20, 28]: below the threshold
- pKd [21, 28]: 5.71
- pKd [22, 28]: below the threshold
- pKd [23, 28]: below the threshold
- pKd [24, 28]: 3.96
- pKd [25, 28]: below the threshold
- pKd [26, 28]: 4.03
